Biological target: T1, The other proteins of the P. furiosus Cmr effector complex (Cmr1, Cmr3, Cmr4, Cmr5, Cmr6, with crRNA)
T1 chain 1: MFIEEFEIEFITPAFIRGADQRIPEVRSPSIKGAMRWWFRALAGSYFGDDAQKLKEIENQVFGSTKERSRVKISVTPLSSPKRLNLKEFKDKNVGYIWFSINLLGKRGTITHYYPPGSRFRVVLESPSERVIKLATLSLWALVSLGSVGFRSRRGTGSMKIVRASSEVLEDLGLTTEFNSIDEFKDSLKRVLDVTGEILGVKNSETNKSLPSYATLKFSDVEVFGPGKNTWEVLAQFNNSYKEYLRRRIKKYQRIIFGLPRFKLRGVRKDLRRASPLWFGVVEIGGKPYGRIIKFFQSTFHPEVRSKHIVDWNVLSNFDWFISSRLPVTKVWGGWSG
T1 chain 2: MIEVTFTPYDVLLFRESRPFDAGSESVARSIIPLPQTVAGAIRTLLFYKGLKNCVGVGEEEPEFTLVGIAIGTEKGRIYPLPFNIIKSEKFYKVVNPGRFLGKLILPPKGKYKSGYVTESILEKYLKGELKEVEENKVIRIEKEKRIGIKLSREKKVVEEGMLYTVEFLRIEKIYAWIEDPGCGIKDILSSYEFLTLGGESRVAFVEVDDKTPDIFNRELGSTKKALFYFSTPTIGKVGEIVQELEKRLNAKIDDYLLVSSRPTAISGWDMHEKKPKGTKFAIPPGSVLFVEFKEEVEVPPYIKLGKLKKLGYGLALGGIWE
T1 chain 3: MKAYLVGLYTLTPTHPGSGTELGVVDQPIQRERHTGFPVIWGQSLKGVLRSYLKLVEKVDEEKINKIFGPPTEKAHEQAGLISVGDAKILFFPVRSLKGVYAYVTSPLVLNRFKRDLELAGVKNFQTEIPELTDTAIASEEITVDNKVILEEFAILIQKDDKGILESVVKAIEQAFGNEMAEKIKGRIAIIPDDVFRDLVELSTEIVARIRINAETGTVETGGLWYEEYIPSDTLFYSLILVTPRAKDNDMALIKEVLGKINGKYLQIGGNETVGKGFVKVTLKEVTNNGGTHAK
T1 chain 4: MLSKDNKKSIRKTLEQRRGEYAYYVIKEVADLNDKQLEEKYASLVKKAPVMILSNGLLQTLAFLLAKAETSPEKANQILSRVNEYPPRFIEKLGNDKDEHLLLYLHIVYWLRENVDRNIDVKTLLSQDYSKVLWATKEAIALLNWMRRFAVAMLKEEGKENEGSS
T1 chain 5: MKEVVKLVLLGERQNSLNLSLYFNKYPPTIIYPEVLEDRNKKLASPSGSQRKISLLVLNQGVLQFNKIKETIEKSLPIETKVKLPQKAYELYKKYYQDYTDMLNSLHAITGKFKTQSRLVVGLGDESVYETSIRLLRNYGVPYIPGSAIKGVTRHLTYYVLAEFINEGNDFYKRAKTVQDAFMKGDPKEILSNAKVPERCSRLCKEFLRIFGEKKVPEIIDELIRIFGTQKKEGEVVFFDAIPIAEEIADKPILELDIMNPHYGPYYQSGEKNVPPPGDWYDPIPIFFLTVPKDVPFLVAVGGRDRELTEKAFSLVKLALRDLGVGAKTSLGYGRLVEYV

B1: Pyrococcus furiosus Cmr2 protein, wild type (PF1129) (protein)
chain: MVNIKEKLFVYLHDPPDKALKIENHEERSKKILSSGNIQYSRTDKVKQADALSSKTQRFIIRTKENKEPVIDFLGRSSGKYFHVGYPVFIHPISTEIKRYETLEKYIDLGRSNRGERFVNEFLERVSKLEGDVLKEVFEDASNKFKGEESKQWAYIWQFYPVKLKEGVKEFAKSELKLKEEEAEKFAEEFVNLPADTRFPDHAIWTHLDLTSALSVKDPTLLRIKIVPVQPFIANSRKQLDLWASSHLLSMLMYKALEVIVDKFGPEHVIYPSLRDQPFFLKFYLGENIGDEILVANLPNKALAIVSGKEAEKIEEEIKKRIRDFLLQLYREAVDWAVENGVVKVDRSEKDSMLKEAYLKIVREYFTVSITWVSLSEKEDIYQVTENAGLSDEDVKKWLKFAEKKENSRVLERIAIYPLLVKILDSLGERKVTEERFEKSEQLKGWKCHVCGENLAIFGDMYDHDNLKSLWLDEEPLCPMCLIKRYYPVWIRSKTGQKIRFESVVDVALLYKNWRKIFDEKYGKDLVSKAREVSEDFVKDNMLVDSDLYYSSTWESGLSKKLKNKKEIDEEKVKEVVDFLNAAYKEIGNPPKYYAILVMDGDDMGKVISGEVLGEISTRIHPNIRDYVEIPEAKYYSTPQVHVAISQALANFSIREVRSVVKDEGLLIYAGGDDVLAILPVDKALEVAYKIRKEFGKSFENGSLLPGWKLSAGILIVHYKHPLYDALEKARDLLNNKAKNVPGKDTLAIGLLKRSGSYYISLVGWELIRVFYNSELRKKLLEEKGGVGKRFIYHVLREVDTWPKVGIDEMLKFEVIRHIRGRNKEETKELREKIYGEIKDLLEHVRGNNEVEKVRGLFTFLKIITDAEVFP
  ssDNA nuclease activity (cleavage of 5' radiolabeled ssDNA oligo, denaturing PAGE): The reconstituted Cmr complex (including Cmr1-6 and crRNA) displays very little ssDNA nuclease activity in comparison with approximately equimolar concentrations of Cmr2 alone

Reference: patent publication US20190161753
